Residue numbers refer to the chain shown, from its start.
T1: huCLL1-K244-Avi-Tev-His (human, UniProt Q5QGZ9 65-265)
T1 construct: extracellular domain
T1 sequence (looked up): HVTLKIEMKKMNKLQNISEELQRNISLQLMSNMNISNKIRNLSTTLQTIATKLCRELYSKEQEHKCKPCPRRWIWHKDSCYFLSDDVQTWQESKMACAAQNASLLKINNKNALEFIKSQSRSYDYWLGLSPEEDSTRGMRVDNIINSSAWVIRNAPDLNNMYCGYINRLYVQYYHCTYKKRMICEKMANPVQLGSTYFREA

T2: huCLL1-Q244-Avi-Tev-His (human, UniProt Q5QGZ9 65-265)
T2 construct: extracellular domain; also called CLL-1 K244Q
T2 sequence (looked up): T1 sequence (looked up) with K180Q

B1: Polypeptide No. 5 (scFv, V domains shown)
VH: QVQLVQSGAEVKKPGASVKVSCKASGNTFTSYGISWVRQAPGQGLEWMGWINPNSGGTKYAQKFQGRVTMTRDTSTSTVYMELSSLRSEDTAVYYCARESWFGELYYGMDVWGKGTTVTVSS
VL: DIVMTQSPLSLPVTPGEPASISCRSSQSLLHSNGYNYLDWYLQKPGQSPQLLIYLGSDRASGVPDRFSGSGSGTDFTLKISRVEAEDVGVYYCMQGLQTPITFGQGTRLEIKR
notes: scFv
B2: Polypeptide No. 4 (scFv, V domains shown)
VH: QVQLVQSGAEVKKPGASVKVSCKASGGTFSSYAISWVRQAPGQGLEWMGWINPNSGNTGYAQKFQGRVTMTRDTSTSTVYMELSSLRSEDTAVYYCAREHGDMDVWGQGTTVTVSS
VL: EIVMTQSPATLSVSPGERATLSCRASQNINSDLAWYQQKPGQAPRLLIYGASTRATGIPARFSGSGSGTEFTLTISSLQSEDFAVYYCQQYDSLPFTFGPGTKVDIKR
notes: scFv
B3: Polypeptide No. 6 (scFv, V domains shown)
VH: QVQLVQSGAEVKKPGASVKVSCKASGYTFTAYYTHWVRQAPGQGLEWMGWMNPNSGHTSYAQKFQGRVTMTRDTSTSTVYMELSSLRSEDTAVYYCAREAYDSFDYWGQGTLVTVSS
VL: DIQMTQSPSSLSASVGDRVTITCRASQSISSYLNWYQQKPGKAPKLLIYEASTLETGVPSRFSGSGSGTDFTLTISSLQPEDFATYYCQQANSFPFTFGPGTKVDIKR
notes: scFv
B4: Polypeptide No. 8 (scFv, V domains shown)
VH: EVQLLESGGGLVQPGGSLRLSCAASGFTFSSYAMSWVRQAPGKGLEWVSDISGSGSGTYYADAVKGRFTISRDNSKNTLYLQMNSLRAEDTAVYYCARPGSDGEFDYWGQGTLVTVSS
VL: DIQMTQSPSSLSASVGDRVTITCRASQSVSSFLNWYQQKPGKAPKLLIYAASSLQSGVPSRFSGSGSGTDFTLTISSLQPEDFATYYCQQSYTTPLTFGQGTKVEIKR
notes: scFv
B5: Polypeptide No. 7 (scFv, V domains shown)
VH: QVQLVQSGAEVKKPGASVKVSCKASGYTFTDYYMHWVRQAPGQGLEWMGWINPNSGGTNYAQKFQGRVTMTRDTSTSTVYMELSSLRSEDTAVYYCARDSRIAVAASSFDYWGQGTLVTVSS
VL: DIQMTQSPSSLSASVGDRVTITCRASRGINNWLTWYQQKPGKAPKLLIYGASSLQSGVPSRFSGSGSGTDFTLTISSLQPEDFATYYCQQSYRIPYTFGQGTKLEIKR
notes: scFv
B6: Polypeptide No. 44 (scFv, V domains shown)
VH: EVQLLESGGGLVQPGGSLRLSCAASGFTFSSYAMHWVRQAPGKGLEWVADISGSGGLTYYADSVKGRFTISRDNSKNTLYLQMNSLRAEDTAVYYCAREGDQYSSSSFFDYWGQGTLVTVSS
VL: not shown
notes: scFv
B7: Polypeptide No. 47 (scFv, V domains shown)
VH: EVQLLESGGGLVQPGGSLRLSCAASGFTFDEYAMHWVRQAPGKGLEWVSAIGAGGSTYYADSVKGRFTISRDNSKNTLYLQMNSLRAEDTAVYYCASSLGPELRGVDYYYYGMDVWGQGTTVTVSS
VL: DIVMTQSPLSLPVTPGEPASISCRSSQSLLHSNGYNYLDWYLQKPGQSPQLLIYAASSLQSGVPDRFSGSGSGTDFTLKISRVEAEDVGVYYCMQGIQWPWTFGQGTKVEIKR
notes: scFv
B8: Polypeptide No. 88 (scFv, V domains shown)
VH: QVQLVQSGAEVKKPGASVKVSCKASGYTFTGYHIHWVRQAPGQGLEWMGRINPNSGGTDYAQKFQGRVTMTRDTSTSTVYMELSSLRSEDTAVYYCARETYSGSYEESFDYWGQGTLVTVSS
VL: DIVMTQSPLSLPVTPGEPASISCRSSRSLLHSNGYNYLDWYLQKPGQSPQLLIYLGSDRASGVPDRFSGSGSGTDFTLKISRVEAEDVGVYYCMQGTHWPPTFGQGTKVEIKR
notes: scFv
B9: Polypeptide No. 43 (scFv, V domains shown)
VH: QVQLVQSGAEVKKPGASVKVSCKASGYTFTNYYMHWVRQAPGQGLEWLGWISPYSGDTKYAQTLQGRVTMTRDTSTSTVYMELSSLRSEDTAVYYCARESMDRLDYWGQGTLVTVSS
VL: DIQMTQSPSSLSASVGDRVTITCRASQSISTYLNWYQQKPGKAPKLLIYDASNLETGVPSRFSGSGSGTDFTLTISSLQPEDFATYYCQQSYSTPVLTFGGGTKVEIKR
notes: scFv
B10: Polypeptide No. 46 (scFv, V domains shown)
VH: QVQLVQSGAEVKKPGASVKVSCKASGYTFTSYYMHWVRQAPGQGLEWMGMINPSAGSTSYAQKFQGRVTMTRDTSTSTVYMELSSLRSEDTAVYYCASVDSSGWYAPFDYWGQGTLVTVSS
VL: B3 VL with S31T, E50D, T53N, F96P, P100G, D105E
notes: scFv
B11: Polypeptide No. 45 (scFv, V domains shown)
VH: EVQLVESGGGLVKPGGSLRLSCAASGFTFDEFGMNWVRQAPGKGLEWISYISGDSGYTNCADSVKGRFTISRDDSKNTLYLQMNSLKTEDTAVYYCAAGYGGYYFDYWGQGTLVTVSS
VL: DIQMTQSPSSLSASVGDRVTITCQASQDIDIYLNWYQQKPGKAPKLLIYAASTLESGVPSRFSGSGSGTDFTLTISSLQPEDFATYYCQQSYSTPPTFGGGTKVEIKR
notes: scFv
B12: Polypeptide No. 48 (scFv, V domains shown)
VH: EVQLLESGGGLVQPGGSLRLSCAASGFNFDDYAMHWVRQAPGKGLEWVSVIYSGGSTYYADSVKGRFTISRDNSKNTLYLQMNSLRAEDTAVYYCTRHDFDYWGQGTLVTVSS
VL: B4 VL with V29I, S31T, F32Y, L33V, S91D, T93S, T94Y, L96Y
notes: scFv
B13: Polypeptide No. 49 (scFv, V domains shown)
VH: EVQLVESGGGLVKPGGSLRLSCAASGFTFSDYALHWVRQAPGKGLEWVSLISGDGGSTYYADSVKGRFTISRDDSKNTLYLQMNSLKTEDTAVYYCARDLGGERSYWGQGTLVTVSS
VL: B4 VL with V29I, S31T, F32W, N34A, S53T, Q89L, S91D, T93S, T94Y, L96P
notes: scFv
B14: Polypeptide No. 24 (scFv, V domains shown)
VH: QVQLVQSGAEVKKPGSSVKVSCKASGYSFTSYGISWVRQAPGQGLEWLGWISAYNGNTNYGQSLQGRVTITADESTSTAYMELSSLRSEDTAVYYCARARGAGTFFDYWGQGTLVTVSS
VL: B7 VL with A55D, S57T, S58N, Q60P, S61T, G96A, I97L, W99T, W101F, V109L
notes: scFv
B15: Polypeptide No. 37 (scFv, V domains shown)
VH: QVQLVQSGAEVKKPGASVKVSCKASGYTFTGYYLHWVRQAPGQGLEWMGVISPSGGGTSYAQKFQGRVTMTRDTSTSTVYMELSSLRSEDTAVYYCARAGFGEGVFRHWGQGTLVTVSS
VL: not shown
notes: scFv
B16: Polypeptide No. 20 (scFv, V domains shown)
VH: QVQLVQSGAEVKKPGASVKVSCKASGYMFTGYYIHWVRQAPGQGLEWMGWINPNSGGTNYAQKFQGRVTMTRDTSTSTVYMELSSLRSEDTAVYYCAKDRFGSGNYGYMDVWGKGTTVTVSS
VL: B5 VL with R27Q, G28S, N30D, N31R, T34A, R93S, I94T, Y96W, K103R
notes: scFv

Biological target: T3, huCD33-G69-Fc recombinant protein (human, UniProt P20138 18-259);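 also: scFvs from periplasmic extracts captured on biosensors via anti-V5 antibody, exposed to recombinant huCD33 variants for 2 min, 5 min dissociation, scored as binding, no binding or ambiguous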
T3 construct: extracellular domain; also called CD33 R69G
T3 sequence (P20138 18-259 R69G): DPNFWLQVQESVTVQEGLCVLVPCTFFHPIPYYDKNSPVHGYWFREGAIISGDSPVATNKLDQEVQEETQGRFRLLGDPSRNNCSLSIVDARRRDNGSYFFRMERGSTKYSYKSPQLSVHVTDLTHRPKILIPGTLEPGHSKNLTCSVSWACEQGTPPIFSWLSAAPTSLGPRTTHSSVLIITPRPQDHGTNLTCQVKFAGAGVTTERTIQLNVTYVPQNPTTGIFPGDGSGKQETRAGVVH
Test: BLI

| binding result | Binder |
| --- | --- |
| no binding | B1 |
| no binding | B2 |
| no binding | B3 |
| no binding | B4 |
| no binding | B5 |

Biological target: T1, huCLL1-K244-Avi-Tev-His
Test: BLI
Experimental: (§1) Discovered scFvs were analyzed for binding to huCD33-R69-His or huCD33-G69-Fc recombinant proteins (for anti-CD33 scFvs; for CLL-1 scFvs, huCLL1-K244-Avi-Tev-His or huCLL1-Q244-Avi-Tev-His were used; for FLT3, huFLT3-T227-His or huFLT3-M227-Fc were used) using BLI on a ForteBio Octet HTX instrument. Streptavidin-coated biosensors were loaded with biotinylated anti-V5 tag monoclonal antibody for 5 min and were then quenched and blocked with 20 μM amine-PEG2-Biotin for 5 min. scFvs were captured on biosensors from scFv clone periplasmic extracts. huCD33 (or huCLL-1, or huFLT3) proteins were then associated with the captured scFvs for 2 minutes, followed by dissociation with buffer (1×HBST [10 mM HEPES pH 7.4, 150 mM NaCl, 0.05% Tween-20], 1 g/L BSA) for 5 minutes. […] Data was fitted with 1:1 Langmuir equation and off-rate values were reported.
(§2) Analogous methods were used to assess selectivity of binding of polypeptides to CLL-1 K244 or CLL-1 Q244.

| binding result | Binder |
| --- | --- |
| binds | B6 |
| binds | B7 |
| no binding | B8 |
| binds | B9 |
| binds | B10 |
| binds | B11 |
| binds | B12 |
| binds | B13 |

Biological target: T2, huCLL1-Q244-Avi-Tev-His
Test: BLI
Experimental: as §1, §2

| binding result | Binder |
| --- | --- |
| no binding | B6 |
| no binding | B7 |
| binds | B8 |
| no binding | B9 |
| no binding | B10 |
| no binding | B11 |
| no binding | B12 |
| no binding | B13 |

Biological target: T4, huCD33-R69 stably expressed on Jurkat cells (human, UniProt P20138 18-364)
T4 construct: whole, on cells; >200,000 receptors per cell; also called CD33 WT; CD33^ARG69
T4 sequence (P20138 18-364): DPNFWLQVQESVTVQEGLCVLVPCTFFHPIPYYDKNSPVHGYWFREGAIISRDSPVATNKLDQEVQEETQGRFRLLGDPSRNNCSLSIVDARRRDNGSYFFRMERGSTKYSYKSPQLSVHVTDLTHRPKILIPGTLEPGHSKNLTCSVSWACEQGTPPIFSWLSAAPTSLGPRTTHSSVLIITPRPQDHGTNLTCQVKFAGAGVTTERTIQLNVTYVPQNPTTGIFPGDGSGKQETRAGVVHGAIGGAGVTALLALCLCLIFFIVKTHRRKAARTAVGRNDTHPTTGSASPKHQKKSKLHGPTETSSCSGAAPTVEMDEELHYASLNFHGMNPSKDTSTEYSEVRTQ
Test: FACS on cells;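 also: fixed Jurkat cells bearing either CD33 variant, barcoded by dye, exposed to myc-tagged scFv periplasmic extracts, detected with anti-myc PE antibody and read by flow cytometry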
Experimental: (§3) Jurkat cells were engineered to stably express either the huCD33-R69 or huCD33-G69 variant at >200,000 receptors per cell. Parental, huCD33-R69, and huCD33-G69 Jurkat cell lines were stained with differing levels of CellTrace Violet Cell Proliferation Kit (ThermoFisher, cat. #C34557) to barcode each cell line. Barcoded Jurkat cell lines were fixed with paraformaldehyde and incubated with myc-labeled scFv periplasmic extracts and a secondary anti-myc PE-conjugated monoclonal antibody. Appropriate positive and negative controls were used. Stained cells were analyzed by flow cytometry (CytoFLEX, Beckman Coulter, Inc.) and binding was assessed by change in PE mean fluorescence intensity (MFI) of the barcoded cell populations.

| geometric mean MFI fold change over Jurkat parental [fold] | Binder |
| --- | --- |
| > 30 | B1 |
| > 30 | B14 |
| < 2 | B15 |
| > 30 | B2 |
| > 30 | B3 |
| 10 to 30 | B4 |
| 10 to 30 | B5 |
| 10 to 30 | B16 |

Biological target: T5, huCD33-G69 stably expressed on Jurkat cells (human, UniProt P20138 18-364)
T5 construct: whole, on cells; >200,000 receptors per cell; also called CD33 Mutant; CD33 R69G
T5 sequence (P20138 18-364 R69G): as the sequence (P20138 18-364) above, with R52G counted along it
Test: FACS on cells;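 also: fixed Jurkat cells bearing either CD33 variant, barcoded by dye, exposed to myc-tagged scFv periplasmic extracts, detected with anti-myc PE antibody and read by flow cytometry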
Experimental: as §3

| geometric mean MFI fold change over Jurkat parental [fold] | Binder |
| --- | --- |
| < 2 | B1 |
| < 2 | B14 |
| 2 to 10 | B15 |
| < 2 | B2 |
| < 2 | B3 |
| < 2 | B4 |
| < 2 | B5 |
| < 2 | B16 |

From patent publication US20240101668A1 (WUGEN, published 2024)
